# Measurements taken from patent US12397035B2, “Compositions and methods for treatment” (Celosia Therapeutics Pty Ltd, priority 2019, dated 2025).
# How the values were obtained:
# Assay type in all cases: binding
# [1] = target: T1, YES-associated protein (YAP) (Homo sapiens, UniProt P46937); assay: Co-immunoprecipitation of Fx with known 14-3-3θ partner YAP; details: data not shown
# T1 construct: host or cells: 293T HEK cells
# FOXO1 = target: T2, FOXO1 (Homo sapiens, UniProt Q12778); assay: Co-immunoprecipitation of Fx with known 14-3-3θ partner FOXO1; details: data not shown
# T2 construct: host or cells: 293T HEK cells
# T2 sequence (Q12778 whole entry, species assumed): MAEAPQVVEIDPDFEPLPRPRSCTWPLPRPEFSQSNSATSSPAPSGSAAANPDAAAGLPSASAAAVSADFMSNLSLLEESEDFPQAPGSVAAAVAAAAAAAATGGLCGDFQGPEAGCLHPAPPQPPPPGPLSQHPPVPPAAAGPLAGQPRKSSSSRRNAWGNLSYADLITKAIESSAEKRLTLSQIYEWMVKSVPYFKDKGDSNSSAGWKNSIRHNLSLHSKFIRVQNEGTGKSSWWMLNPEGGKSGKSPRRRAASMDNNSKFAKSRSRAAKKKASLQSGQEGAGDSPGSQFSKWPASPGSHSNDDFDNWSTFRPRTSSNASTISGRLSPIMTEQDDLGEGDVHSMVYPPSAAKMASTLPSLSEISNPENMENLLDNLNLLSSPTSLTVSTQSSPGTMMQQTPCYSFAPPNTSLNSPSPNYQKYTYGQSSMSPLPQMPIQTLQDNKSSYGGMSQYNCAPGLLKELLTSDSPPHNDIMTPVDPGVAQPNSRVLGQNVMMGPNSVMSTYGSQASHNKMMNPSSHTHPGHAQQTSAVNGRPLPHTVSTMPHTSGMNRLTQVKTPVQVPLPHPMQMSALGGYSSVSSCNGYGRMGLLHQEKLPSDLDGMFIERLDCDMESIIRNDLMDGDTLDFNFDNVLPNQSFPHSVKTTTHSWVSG
# TDP-43 = target: T3, TDP-43 (Homo sapiens, UniProt Q13148); assay: Co-immunoprecipitation of Fx (α-helix 6 of 14-3-3θ) with TDP-43; details: Fx expressed in cells, FIG. 5
# T3 construct: expressed in transfected cells; host or cells: 293T HEK cells
# T3 sequence (Q13148 whole entry): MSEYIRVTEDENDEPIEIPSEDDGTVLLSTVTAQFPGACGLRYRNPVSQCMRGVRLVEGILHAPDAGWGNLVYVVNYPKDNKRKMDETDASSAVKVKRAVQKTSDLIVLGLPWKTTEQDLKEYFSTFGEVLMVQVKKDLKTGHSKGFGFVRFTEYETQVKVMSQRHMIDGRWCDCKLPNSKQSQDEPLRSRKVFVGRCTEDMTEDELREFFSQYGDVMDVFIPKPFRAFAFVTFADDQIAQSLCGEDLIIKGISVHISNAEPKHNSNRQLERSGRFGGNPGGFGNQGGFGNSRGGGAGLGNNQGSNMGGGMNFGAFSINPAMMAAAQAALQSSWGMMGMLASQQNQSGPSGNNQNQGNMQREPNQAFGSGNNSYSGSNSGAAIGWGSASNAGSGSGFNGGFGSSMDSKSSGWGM
# Experimental: Immunoprecipitation. Immunoprecipitation was performed as previously described (Ittner et al., 2009, J Biol Chem 284: 20909-20916). Briefly, 293T HEK cells were co-transfected with variants of TDP-43 in pcDNA3.1/V5 and/or 14-3-3 isoforms/variants. Cells were lysed in RIPA buffer. Equal amounts of proteins were incubated overnight with 1 ul of V5 antibody (Life Technologies) and precipitated using magnetic Protein G beads (Life Technologies). Co-immunoprecipitation was further confirmed by Western blotting using myc antibodies.
# Western blotting. Western blotting was performed as previously described (Ke et al., 2012, PLoS One 7: e35678). Primary antibodies used for immunoblotting were human TDP-43, c-terminal TDP-43, pan-TDP-43 (Proteintech), 14-3-3θ (Abeam), V5, myc (Life Technologies), phospho-TDP-43 S409/410 (Cosmobio), GAPDH (Merck-Millipore).
# Cell culture and staining. All immunorecipitation experiments were carried out in 293T HEK cells. Cells were maintained in DMEM containing 10% fetal bovine serum (FBS) as per standard protocols. SH-SY5Y cells were maintained in DMEM/F-12 containing 10% FBS and used for 14-3-3θ overexpression or knockdown. Stable overexpression and knockdown of 14-3-3θ were achieved through lentiviral transduction. For immunocytochemistry, cells were fixed in 4% PFA and blocked with 3% heat-inactivated goat serum/2% BSA. […]
# T1 sequence (P46937 whole entry): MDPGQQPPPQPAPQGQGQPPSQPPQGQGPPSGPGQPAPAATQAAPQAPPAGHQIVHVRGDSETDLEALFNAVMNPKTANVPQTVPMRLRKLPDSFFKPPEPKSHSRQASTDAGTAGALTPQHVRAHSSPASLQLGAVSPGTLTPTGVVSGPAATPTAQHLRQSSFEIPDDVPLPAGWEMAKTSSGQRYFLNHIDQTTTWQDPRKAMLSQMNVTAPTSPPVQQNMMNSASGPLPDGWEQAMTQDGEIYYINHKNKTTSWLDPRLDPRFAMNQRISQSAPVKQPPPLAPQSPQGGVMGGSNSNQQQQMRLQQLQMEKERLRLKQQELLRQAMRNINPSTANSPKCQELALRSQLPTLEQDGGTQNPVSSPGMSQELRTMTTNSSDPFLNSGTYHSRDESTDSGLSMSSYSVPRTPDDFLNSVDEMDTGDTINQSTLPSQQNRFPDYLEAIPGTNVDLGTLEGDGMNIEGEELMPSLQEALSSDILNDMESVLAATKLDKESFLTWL
substance,measurement,setting,value
"Fx: construct including only α-helix 6 (αF) of 14-3-3θ, 30 amino acid sequence SEQ ID NO:2 (amino acids 135-164) (GDDRKQTIDNSQGAYQEAFDISKKEMQPTH; V5 tag in some forms; listed as Homo sapiens)",pull down of YES-associated protein (YAP),[1],failed to pull down
same,pull down of FOXO1,FOXO1,failed to pull down
same,co-precipitation of TDP-43,TDP-43,co-precipitated TDP-43
